Assay results from publication PMC12872464.
Residue numbers refer to the chain shown, from its start. Names and notes keep the numbering of the source.

B1: HA-tagged PPAP recombinant protein, isoform 2 (membrane protein), wild type (rPPAP-HA WT), P15309-2 N94A; N220A; N333A (protein)
chain: KELKFVTLVFRHGDRSPIDTFPTDPIKESSWPQGFGQLTQLGMEQHYELGEYIRKRYRKFLAESYKHEQVYIRSTDVDRTLMSAMTNLAALFPPEGVSIWNPILLWQPIPVHTVPLSEDQLLYLPFRNCPRFQELESETLKSEEFQKRLHPYKDFIATLGKLSGLHGQDLFGIWSKVYDPLYCESVHAFTLPSWATEDTMTKLRELSELSLLSLYGIHKQKEKSRLQGGVLVNEILNHMKRATQIPSYKKLIMYSAHDTTVSGLQMALDVYNGLLPPYASCHLTELYFEKGEYFVEMYYRAETQHEPYPLMLPGCSPSCPLERFAELVGPVIPQDWSTECMTTNSHQVLKVIFAVAFCLISAVLMVLLFIHIRRGLCWQRESYGNI
B2: HA-tagged PPAP recombinant protein, isoform 2 (membrane protein), wild type (rPPAP-HA WT), P15309-2 N220A; N333A (protein)
chain: B1 chain with A62N
B3: HA-tagged PPAP recombinant protein, isoform 2 (membrane protein), wild type (rPPAP-HA WT), P15309-2 N333A (protein)
chain: B1 chain with A62N, A188N
B4: HA-tagged PPAP recombinant protein, isoform 2 (membrane protein), wild type (rPPAP-HA WT), P15309-2 N94A (protein)
chain: B1 chain with A188N, A301N
B5: HA-tagged PPAP recombinant protein, isoform 2 (membrane protein), wild type (rPPAP-HA WT), P15309-2 N220A (protein)
chain: B1 chain with A62N, A301N
B6: HA-tagged PPAP recombinant protein, isoform 2 (membrane protein), wild type (rPPAP-HA WT), P15309-2 N94A; N333A (protein)
chain: MRAAPLLLARAASLSLGFLFLLFFWLDRSVLAKELKFVTLVFRHGDRSPIDTFPTDPIKESSWPQGFGQLTQLGMEQHYELGEYIRKRYRKFLAESYKHEQVYIRSTDVDRTLMSAMTNLAALFPPEGVSIWNPILLWQPIPVHTVPLSEDQLLYLPFRNCPRFQELESETLKSEEFQKRLHPYKDFIATLGKLSGLHGQDLFGIWSKVYDPLYCESVHNFTLPSWATEDTMTKLRELSELSLLSLYGIHKQKEKSRLQGGVLVNEILNHMKRATQIPSYKKLIMYSAHDTTVSGLQMALDVYNGLLPPYASCHLTELYFEKGEYFVEMYYRAETQHEPYPLMLPGCSPSCPLERFAELVGPVIPQDWSTECMTTNSHQGTEDSTD
B7: HA-tagged PPAP recombinant protein, isoform 2 (membrane protein), wild type (rPPAP-HA WT), P15309-2 N94A; N220A (protein)
chain: B6 chain with N220A, A333N

What follows are binders tested against recombinant lectin domain of FimH with FLAG tag (rFimHLD-FLAG), P08191 (assay: western blot quantification of rFimHLD-FLAG bound to rPPAP-HA). Details: chain shown with the change; n = 3 biological replicates; parent: est. 1.0; read off a plot.
Chain of recombinant lectin domain of FimH with FLAG tag (rFimHLD-FLAG), P08191 (P08191 22-156): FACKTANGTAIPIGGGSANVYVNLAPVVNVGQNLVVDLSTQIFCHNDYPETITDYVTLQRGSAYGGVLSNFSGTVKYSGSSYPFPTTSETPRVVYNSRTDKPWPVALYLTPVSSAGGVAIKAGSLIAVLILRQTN

| Binder | ratio to parent |
| --- | --- |
| B1 | 0.36 |
| B2 | 0.25 |
| B3 | 0.6 |
| B4 | 0.78 |
| B5 | 0.68 |
| B6 | 0.5 |
| B7 | 0.53 |

Each binder was assayed against full-length FimH adhesin on live WT UPEC UTI89 bacteria, P08191 (assay: binding array (rPPAP bound to glass slide, incubated with live bacteria)). Details: chain shown with the change, with D-mannose, n = 3 biological replicates, parent: est. 18, read off a plot.
Chain of full-length FimH adhesin on live WT UPEC UTI89 bacteria, P08191 (P08191 22-300): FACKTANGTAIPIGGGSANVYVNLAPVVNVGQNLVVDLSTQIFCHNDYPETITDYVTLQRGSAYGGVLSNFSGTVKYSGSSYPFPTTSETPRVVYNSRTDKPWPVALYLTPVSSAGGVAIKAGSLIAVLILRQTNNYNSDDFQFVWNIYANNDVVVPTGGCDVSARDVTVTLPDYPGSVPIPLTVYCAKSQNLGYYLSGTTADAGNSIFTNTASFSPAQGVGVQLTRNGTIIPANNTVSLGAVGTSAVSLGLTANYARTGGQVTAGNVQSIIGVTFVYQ

| Binder | response (bacteria per field) |
| --- | --- |
| B1 | 13 |

Same assay, conditions: chain shown with the change, without D-mannose, n = 3 biological replicates, parent: est. 66, read off a plot

| Binder | response (bacteria per field) |
| --- | --- |
| B1 | 19 |
